From patent publication US20090068224A1, “METHOD TO IDENTIFY POLYPEPTIDE TOLL-LIKE RECEPTOR (TLR) LIGANDS” (VAXINNATE CORPORATION, priority 2005, published 2009)

B1: T7 phage displaying the E. coli flagellin (fliC) protein (ligand)
chain: MAQVINTNSLSLITQNNINKNQSALSSSIERLSSGLRINSAKDDAAGQAIANRFTSNIKGLTQAARNANDGISVAQTTEGALSEINNNLQRVRELTVQATTGTNSESDLSSIQDEIKSRLDEIDRVSGQTQFNGVNVLAKNGSMKIQVGANDNQTITIDLKQIDAKTLGLDGFSVKNNDTVTTSAPVTAFGATTTNNIKLTGITLSTEAATDTGGTNPASIEGVYTDNGNDYYAKITGGDNDGKYYAVTVANDGTVTMATGATANATVTDANTTKATTITSGGTPVQIDNTAGSATANLGAVSLVKLQDSKGNDTDTYALKDTNGNLYAADVNETTGAVSVKTITYTDSSGAASSPTAVKLGGDDGKTEVVDIDGKTYDSADLNGGNLQTGLTAGGEALTAVANGKTTDPLKALDDAIASVDKFRSSLGAVQNRLDSAVTNLNNTTTNLSEAQSRIQDADYATEVSNMSKAQIIQQAGNSVLAKANQVPQQVLSLLQG
notes: also called fliC phage; recombinant fliC-phage

Tests used:
TLR2 [1] = target: T1, TLR2 (Homo sapiens, UniProt O60603); experiment: NF-κB-dependent luciferase reporter assay, 293 vs 293.hTLR2 cells; assay type: cell-based; conditions: synthetic peptide on parental 293 and 293.hTLR2 cells, four to five hours at 37° C.
Experimental: NF-κB-dependent luciferase reporter assay: Parental 293 cells and 293.hTLR2 cells (see Example 1, above) were incubated with an aliquot of test peptide four to five hours at 37° C. NF-κB-dependent luciferase activity was measured using the Steady-Glo Luciferase Assay System by Promega (E2510), following the manufacturer's instructions. Luminescence was measured on a microplate luminometer (FARCyte, Amersham) and expressed as relative luminescence units (RLU) after subtracting the background reading obtained by exposing cells to the DMEM medium alone.
The biological activity of the TLR2-binding peptides isolated by the screening method was confirmed using the isolated peptides in an NF-κB-dependent reporter gene assay. For this assay, a synthetic monomer of the DPDSG motif (SEQ ID NO: 5), or a concatemerized copy (DPDSG)5, was incubated on parental HEK293 cells containing an NF-κB-dependent luciferase reporter construct (293) and on TLR2-overexpressing HEK293 cells containing an NF-κB-dependent luciferase reporter construct (293.hTLR2, see Example 1, above). Luciferase activity was then measured. […] Thus, the TLR2-binding peptides identified by the screening assay are functional peptide TLR2 ligands.
Target sequence in this assay (O60603 21-784): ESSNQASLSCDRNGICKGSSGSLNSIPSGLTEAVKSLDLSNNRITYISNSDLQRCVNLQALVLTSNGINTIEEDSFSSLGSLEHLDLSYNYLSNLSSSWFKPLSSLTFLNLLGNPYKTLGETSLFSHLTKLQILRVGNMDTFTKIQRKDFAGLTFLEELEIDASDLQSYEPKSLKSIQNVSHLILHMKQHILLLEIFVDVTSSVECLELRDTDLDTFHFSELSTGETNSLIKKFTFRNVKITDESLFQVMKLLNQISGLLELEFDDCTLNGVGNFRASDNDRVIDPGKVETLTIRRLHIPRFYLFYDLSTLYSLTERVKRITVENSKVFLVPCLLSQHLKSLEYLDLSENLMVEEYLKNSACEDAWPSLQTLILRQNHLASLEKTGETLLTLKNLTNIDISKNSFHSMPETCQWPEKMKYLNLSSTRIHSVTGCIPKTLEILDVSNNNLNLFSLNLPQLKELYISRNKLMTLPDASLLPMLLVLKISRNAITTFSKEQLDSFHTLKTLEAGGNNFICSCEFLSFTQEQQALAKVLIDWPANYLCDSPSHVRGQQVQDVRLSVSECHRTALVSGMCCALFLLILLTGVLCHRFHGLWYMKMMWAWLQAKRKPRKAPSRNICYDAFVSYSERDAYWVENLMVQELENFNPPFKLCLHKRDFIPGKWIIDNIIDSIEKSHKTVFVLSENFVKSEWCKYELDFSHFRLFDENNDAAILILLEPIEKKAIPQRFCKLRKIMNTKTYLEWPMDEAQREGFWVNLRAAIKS

TLR2 [2] = target: T1, TLR2; parameters: host or cells: monocytes and epithelial cells; conditions: cited from earlier work
Target sequence in this assay (O60603 21-784, species assumed): as the sequence (O60603 21-784) above

TLR2 [3] = target: T1, TLR2; experiment: T7 phage biopanning, 4 rounds (negative on parental HEK293, positive on 293.hTLR2 cells); share of 109 sequenced clones
Target sequence in this assay (O60603 21-784 limits assumed): as the sequence (O60603 21-784) above

[4] = target: human TLR2 (293.hTLR2 cells) (Homo sapiens, UniProt O60603); experiment: Biopanning of pentameric random peptide phage display library, sequencing of enriched clones; assay type: binding; conditions: percentage of all clones sequenced (n = 109) having given peptide sequence; after 4 rounds of biopanning, TLRlo parental HEK293, TLRhi 293.hTLR2; peptides with identity to known microbial proteins
Experimental: (§1) Screening of phage display libraries by biopanning: Phage display libraries are screened for peptide TLR ligands according to the following procedure. The phage display library is incubated on an in vitro cultured monolayer of cells that express minimal amounts of the TLR of interest (TLR^lo) in order to reduce non-specific binding, and then transferred to an in vitro suspension culture of cells expressing the relevant TLR (TLR^hi) to capture phage with binding specificity for the target TLR. After several washes with PBS to remove phage remaining unbound to the TLR^hi cells, TLR^hi cell-bound phages are harvested by centrifugation. The TLR^hi cells with bound phage are incubated with E. coli (strain BLT5615) in order to amplify the phage. This process is repeated three or more times to yield a phage population enriched for high affinity binding to the target TLR.
In each round of biopanning, the harvested phage that are bound to TLR^hi cells can be titred prior to amplification, amplified, and then titred again prior to initiation of the next cycle of biopanning. In this way, it is possible to determine the percent (%) of input phage in each cycle that are ultimately harvested from the TLR^hi cells. This calculation provides a round-by-round measure of enrichment within the phage display library for phage that display TLR-binding peptides.
Construction of random peptide libraries (RPL): A pentameric random peptide phage display library of T7SELECT phage was constructed essentially as described in Example 2. A pair of phosphorylated oligonucleotides with the sequence NNBNNBNNBNNBNNB (where N=A/G/C/T, B=G/C/T) flanked at the 5′ and 3′ ends by EcoRI and HindIII sites, respectively, was synthesized. Equimolar amounts of the oligonucleotides were annealed by heating for 5 min at 90° C. with gradual cooling to 25° C. The double stranded DNA was ligated to T7Select 10-3 bacteriophage vector (Novagen) that had been previously digested with EcoRI and HindIII. The ligation reactions were packaged in vitro and titred using the host E. coli strain […] that was grown in M9TB (Novagen), generating 2.5×10^7 clones, representing about 75% coverage of the library. The recombinant phage were subjected to several rounds of amplification to generate a total library of 1.35×10^12 phage, ensuring representation in excess of 5×10^4 fold for each clone in the library.
(§2) Sequencing of phage inserts: Individual phage clones from the enriched pool are isolated via plaque formation in E. coli. The DNA inserts of individual phage are amplified in PCR using the commercially available primers T7SelectUP (5′-GGAGCTGTCGTATTCCAGTC-3′; SEQ ID NO: 37; Novagen, catalog #70005) and T7SelectDOWN (5′-AACCCCTCAAGACCCGTTTA-3′; SEQ ID NO: 38; Novagen, catalog #70006). The PCR product DNA is purified using the QIAquick 96 PCR Purification Kit (Qiagen) and subjected to DNA sequencing using T7SelectUP and T7SelectDOWN primers.
We constructed a pentameric random peptide phage display library in T7 phage. This phage library was then screened by biopanning as described in Example 3. For this screen, the TLR^lo cells were parental HEK293 (TLR2^−) cells, and the TLR^hi cells were HEK293 cells ectopically expressing human TLR2 (293.hTLR2, see Example 1, above). Phage bound to 293.hTLR2 cells were harvested, titred, and amplified prior to initiation of the each cycle of panning. In this way, it was possible to determine the % of input phage in each cycle that was ultimately harvested from the TLR2^hi cells.
After 4 rounds of biopanning, individual phage clones from the enriched pool were isolated via plaque formation in E. coli. […] phage clones were randomly picked for sequencing. Of the 109 individual clones examined the motif DPDSG was predominant (see Tables 6 and 7). […]

[5] = target: human TLR2 and human CD14 (293.hTLR2.hCD14 cells) (Homo sapiens, UniProt O60603); experiment: Biopanning of pooled 10, 15 and 20 amino acid random peptide phage display libraries, sequencing of enriched clones; assay type: binding; conditions: percentage of all clones sequenced having given peptide sequence; 96 clones picked after 4 rounds of biopanning, TLRlo parental HEK293, TLRhi 293.hTLR2.hCD14
Experimental: as §1
Libraries of phage displaying random peptides 10, 15 and 20 amino acids in length were constructed essentially as described for the pentameric random peptide library, except that the phosphorylated oligonucleotides used were 30, 45, and 60 nucleotides in length, respectively.
as §2
We also constructed 10, 15, and 20 amino acid random peptide phage display libraries in T7SELECT phage. These phage display libraries were pooled in equal proportion and then screened by biopanning as described in Example 3. […] Of the 96 clones analyzed three peptide sequences were particularly abundant (see Table 8). […]

human TLR5 = target: T2, human TLR5 (human, UniProt O60602 21-858); experiment: fliC-phage incubated on 293 and 293.hTLR5 cells; NF-κB luciferase read-out
T2 construct: Expressed ectopically on HEK293 cells from the bought Invivogen plasmid pUNO-hTLR5 (293.hTLR5); also called hTLR5
T2 sequence (O60602 21-858 limits assumed): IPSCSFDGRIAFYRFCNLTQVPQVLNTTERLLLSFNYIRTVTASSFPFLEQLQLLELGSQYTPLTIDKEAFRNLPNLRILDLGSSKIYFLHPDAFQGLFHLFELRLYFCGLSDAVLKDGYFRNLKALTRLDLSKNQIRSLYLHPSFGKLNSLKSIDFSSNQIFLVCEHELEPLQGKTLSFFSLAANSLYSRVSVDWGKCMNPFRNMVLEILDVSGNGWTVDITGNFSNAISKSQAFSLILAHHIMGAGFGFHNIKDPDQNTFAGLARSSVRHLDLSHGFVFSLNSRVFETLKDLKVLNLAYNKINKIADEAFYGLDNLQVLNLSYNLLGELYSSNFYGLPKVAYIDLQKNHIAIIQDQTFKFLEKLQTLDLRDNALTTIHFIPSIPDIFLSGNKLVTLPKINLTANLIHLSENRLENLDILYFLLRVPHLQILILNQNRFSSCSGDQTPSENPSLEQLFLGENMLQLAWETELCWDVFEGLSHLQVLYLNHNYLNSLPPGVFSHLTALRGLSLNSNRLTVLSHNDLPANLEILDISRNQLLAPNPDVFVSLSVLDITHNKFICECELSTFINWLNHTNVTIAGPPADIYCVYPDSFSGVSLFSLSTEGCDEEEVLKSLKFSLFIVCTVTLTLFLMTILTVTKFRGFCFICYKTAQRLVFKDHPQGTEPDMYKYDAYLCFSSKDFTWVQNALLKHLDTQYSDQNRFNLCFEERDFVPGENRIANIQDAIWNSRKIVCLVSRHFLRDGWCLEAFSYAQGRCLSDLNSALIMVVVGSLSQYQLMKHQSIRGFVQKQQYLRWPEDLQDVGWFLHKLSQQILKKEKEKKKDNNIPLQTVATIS

Chain of human TLR2 and human CD14 (293.hTLR2.hCD14 cells) (O60603 21-784): as the sequence (O60603 21-784) above
Chain of human TLR2 (293.hTLR2 cells) (O60603 21-784): as above

Molecule	% ABUNDANCE (TLR2 [3]) [%]	further results
(DPDSG)5 (DPDSGDPDSGDPDSGDPDSGDPDSG) [concatemerized copy of the DPDSG motif, solid phase synthesis]	–	NF-κB-dependent luciferase reporter gene expression (TLR2 [1]): activated luciferase reporter gene expression in a TLR2-dependent manner
ALTTE (PEPTIDEALTTE) [pentapeptide derived from fimbrial subunit protein, known TLR2 ligand]	–	activation of monocytes and epithelial cells via TLR2 signaling (TLR2 [2]; Ogawa et al. 1995, 2002, Asai et al. 2001): activate monocytes and epithelial cells via TLR2 signaling
AWAGT (peptide)	0.9	–
CGPKL (peptide)	0.92	–
CVWLQ (peptide)	0.9	–
DPDSG [peptide TLR2 ligand; also made as synthetic monomer]	–	NF-κB-dependent luciferase reporter gene expression (TLR2 [1]): activated luciferase reporter gene expression in a TLR2-dependent manner; % Abundance [4]: 46.8%
EVCAP (peptide)	0.92	–
FCGLG (peptide)	0.92	–
GGKLS (peptide)	0.92	–
GLTTE (PEPTIDEGLTTE) [A to G substitution variant of ALTTE]	–	antagonism of the wild-type peptide and full-length fimbrial protein (TLR2 [2]; single amino acid substitution (A to G), Ogawa et al. 1995): antagonize the activity of the wild-type peptide and full-length protein
GPLLH (peptide)	0.9	–
GRRGLCRGCRTRGRIKQLQSAHK [peptide TLR2 ligand from phage display]	–	% Abundance [5]: 16.1%
HLLPG (peptide)	0.9	–
IGRFR (peptide)	2.7	–
IHVVP (peptide)	0.9	–
IMRHP (peptide)	0.92	–
IMWFP (peptide)	0.9	–
IYKLA (peptide)	0.9	–
KCQSF (peptide)	0.92	–
KGGVGPVRRSSRLRRTTQPG [peptide TLR2 ligand from phage display]	–	% Abundance [5]: 33.3%
KGWF (peptide)	0.9	–
KYMPH (peptide)	0.9	–

Molecule	% ABUNDANCE (TLR2 [3]) [%]	further results
LRQGR (peptide)	0.9	–
MFGVP (peptide)	0.9	–
MGTLP (peptide)	1.8	–
MISS (peptide)	0.92	–
MRRIL (peptide)	0.92	–
NPPTT (peptide)	0.92	–
NRFGL (peptide)	0.92	–
NRTVF (peptide)	0.92	–
NYRRW (peptide)	0.9	–
PESGV (peptide)	0.92	–
RGGF (peptide)	0.92	–
RGGSK (peptide)	3.67	–
RVVAP (peptide)	0.9	–
RWGYHLRDRKYKGVRSHKGVPR [peptide TLR2 ligand from phage display]	–	% Abundance [5]: 19.4%
SGGLF (peptide)	0.92	–
SHIAL (peptide)	0.9	–
SRHGR (peptide)	0.92	–
THKPK (peptide)	0.9	–
VGKND (peptide)	0.9	–
VSEGV (peptide)	3.67	–
B1	–	binding result (human TLR5): binds
